Laboratory results: IntAct's records for PubMed 20723758

B1: Epidermal growth factor receptor (Drosophila melanogaster (Fruit fly)), P04412 (parent)
chain: MLLRRRNGPCPFPLLLLLLAHCICIWPASAARDRYARQNNRQRHQDIDRDRDRDRFLYRSSSAQNRQRGGANFALGLGANGVTIPTSLEDKNKNEFVKGKICIGTKSRLSVPSNKEHHYRNLRDRYTNCTYVDGNLKLTWLPNENLDLSFLDNIREVTGYILISHVDVKKVVFPKLQIIRGRTLFSLSVEEEKYALFVTYSKMYTLEIPDLRDVLNGQVGFHNNYNLCHMRTIQWSEIVSNGTDAYYNYDFTAPERECPKCHESCTHGCWGEGPKNCQKFSKLTCSPQCAGGRCYGPKPRECCHLFCAGGCTGPTQKDCIACKNFFDEAVSKEECPPMRKYNPTTYVLETNPEGKYAYGATCVKECPGHLLRDNGACVRSCPQDKMDKGGECVPCNGPCPKTCPGVTVLHAGNIDSFRNCTVIDGNIRILDQTFSGFQDVYANYTMGPRYIPLDPERREVFSTVKEITGYLNIEGTHPQFRNLSYFRNLETIHGRQLMESMFAALAIVKSSLYSLEMRNLKQISSGSVVIQHNRDLCYVSNIRWPAIQKEPEQKVWVNENLRADLCEKNGTICSDQCNEDGCWGAGTDQCLTCKNFNFNGTCIADCGYISNAYKFDNRTCKICHPECRTCNGAGADHCQECVHVRDGQHCVSECPKNKYNDRGVCRECHATCDGCTGPKDTIGIGACTTCNLAIINNDATVKRCLLKDDKCPDGYFWEYVHPQEQGSLKPLAGRAVCRKCHPLCELCTNYGYHEQVCSKCTHYKRREQCETECPADHYTDEEQRECFQRHPECNGCTGPGADDCKSCRNFKLFDANETGPYVNSTMFNCTSKCPLEMRHVNYQYTAIGPYCAASPPRSSKITANLDVNMIFIITGAVLVPTICILCVVTYICRQKQKAKKETVKMTMALSGCEDSEPLRPSNIGANLCKLRIVKDAELRKGGVLGMGAFGRVYKGVWVPEGENVKIPVAIKELLKSTGAESSEEFLREAYIMASEEHVNLLKLLAVCMSSQMMLITQLMPLGCLLDYVRNNRDKIGSKALLNWSTQIAKGMSYLEEKRLVHRDLAARNVLVQTPSLVKITDFGLAKLLSSDSNEYKAAGGKMPIKWLALECIRNRVFTSKSDVWAFGVTIWELLTFGQRPHENIPAKDIPDLIEVGLKLEQPEICSLDIYCTLLSCWHLDAAMRPTFKQLTTVFAEFARDPGRYLAIPGDKFTRLPAYTSQDEKDLIRKLAPTTDGSEAIAKPDDYLQPKAAPGPSHRTDCTDEMPKLNRYCKDPSNKNSSTGDDERDSSAREVGVGNLRLDLPVDEDDYLMPTCQPGPNNNNNMNNPNQNNMAAVGVAAGYMDLIGVPVSVDNPEYLLNAQTLGVGESPIPTQTIGIPVMGGPGTMEVKVPMPGSEPTSSDHEYYNDTQRELQPLHRNRNTETRV
partner: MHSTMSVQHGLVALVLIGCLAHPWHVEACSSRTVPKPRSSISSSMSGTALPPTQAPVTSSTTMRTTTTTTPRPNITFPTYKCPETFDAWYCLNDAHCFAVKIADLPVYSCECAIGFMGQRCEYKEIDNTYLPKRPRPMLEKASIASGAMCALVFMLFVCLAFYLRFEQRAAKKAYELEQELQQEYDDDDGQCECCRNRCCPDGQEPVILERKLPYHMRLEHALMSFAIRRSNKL

Variants of: B1
Settings: with spitz_drome spi

effect of a mutation on the interaction	Variant
decreasing interaction	Y341E;N342A;T344D;Y346E;V347A;L348D
